# Source: the supplement of paper PMC10567573
# B1: FBXO3 (parent)
# chain: DEEERRRRVFDVPIRRRRCSRLF
# Variants of: B1
# Test: protein stability index of a GFP-peptide fusion (GPS, HEK-293T) (PSI 1-6); higher = more stable
# Conditions: c terminus: native
# 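Further: lentivirally expressed fusions sorted by FACS into six bins by GFP to DsRed ratio, PSI derived from sequencing read proportions per bin multiplied by bin number.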
row,Variant,protein stability index
1,DEEERRRRVFDVHIRRRRCSRLF [P13H],2.95
2,DEEERRRRVFDVMIRRRRCSRLF [P13M],2.19
3,DEEERRRRVFDVFIRRRRCSRLF [P13F],3.42
4,DEEERRRRVFDVLIRRRRCSRLF [P13L],3.65
5,DEEERRRRVFDVAIRRRRCSRLF [P13A],2.46
6,DEEERRRRVFDVRIRRRRCSRLF [P13R],1.72
7,DEEERRRRVFDVWIRRRRCSRLF [P13W],2.87
8,DEEERRRRVFDVCIRRRRCSRLF [P13C],2.98
9,DEEERRRRVFDVDIRRRRCSRLF [P13D],2.15
10,DEEERRRRVFDVYIRRRRCSRLF [P13Y],2.8
11,DEEERRRRVFDVEIRRRRCSRLF [P13E],2.15
12,DEEERRRRVFDVTIRRRRCSRLF [P13T],1.44
13,DEEERRRRVFDVKIRRRRCSRLF [P13K],2.9
14,DEEERRRRVFDVNIRRRRCSRLF [P13N],2.07
15,DEEERRRRVFDVQIRRRRCSRLF [P13Q],2.2
16,DEEERRRRVFDVVIRRRRCSRLF [P13V],2.89
17,DEEERRRRVFDVSIRRRRCSRLF [P13S],2.23
18,DEEERRRRVFDVGIRRRRCSRLF [P13G],2.24
19,DEEERRRRVFDLPIRRRRCSRLF [V12L],2.61
20,DEEERRRRVFDKPIRRRRCSRLF [V12K],3.25
21,DEEERRRRVFDCPIRRRRCSRLF [V12C],1.73
22,DEEERRRRVFDSPIRRRRCSRLF [V12S],3.24
23,DEEERRRRVFDIPIRRRRCSRLF [V12I],2.32
24,DEEERRRRVFDGPIRRRRCSRLF [V12G],3.26
25,DEEERRRRVFDYPIRRRRCSRLF [V12Y],2.78

row,Variant,protein stability index
1,DEEERRRRVFDEPIRRRRCSRLF [V12E],2.81
2,DEEERRRRVFDWPIRRRRCSRLF [V12W],2.66
3,DEEERRRRVFDNPIRRRRCSRLF [V12N],2.28
4,DEEERRRRVFDFPIRRRRCSRLF [V12F],2.6
5,DEEERRRRVFDHPIRRRRCSRLF [V12H],2.69
6,DEEERRRRVFDTPIRRRRCSRLF [V12T],2.75
7,DEEERRRRVFDPPIRRRRCSRLF [V12P],2.98
8,DEEERRRRVFDMPIRRRRCSRLF [V12M],2.47
9,DEEERRRRVFDAPIRRRRCSRLF [V12A],3.05
10,DEEERRRRVFDDPIRRRRCSRLF [V12D],2.71
11,DEEERRRRVFDRPIRRRRCSRLF [V12R],3.62
12,DEEERRRRVFDQPIRRRRCSRLF [V12Q],3.24
13,DEEERRRRVGDVPIRRRRCSRLF [F10G],4.62
14,DEEERRRRVHDVPIRRRRCSRLF [F10H],4.08
15,DEEERRRRVMDVPIRRRRCSRLF [F10M],3.87
16,DEEERRRRVIDVPIRRRRCSRLF [F10I],3.84
17,DEEERRRRVADVPIRRRRCSRLF [F10A],4.88
18,DEEERRRRVLDVPIRRRRCSRLF [F10L],3.06
19,DEEERRRRVDDVPIRRRRCSRLF [F10D],4.51
20,DEEERRRRVYDVPIRRRRCSRLF [F10Y],3.22
21,DEEERRRRVNDVPIRRRRCSRLF [F10N],4.45
22,DEEERRRRVCDVPIRRRRCSRLF [F10C],3.43
23,DEEERRRRVQDVPIRRRRCSRLF [F10Q],4.56
24,DEEERRRRVVDVPIRRRRCSRLF [F10V],3.94
25,DEEERRRRVWDVPIRRRRCSRLF [F10W],2.09

row,Variant,protein stability index
1,DEEERRRRVKDVPIRRRRCSRLF [F10K],4.19
2,DEEERRRRVSDVPIRRRRCSRLF [F10S],4.54
3,DEEERRRRVPDVPIRRRRCSRLF [F10P],4.32
4,DEEERRRRVEDVPIRRRRCSRLF [F10E],4.16
5,DEEERRRRVRDVPIRRRRCSRLF [F10R],3.85
6,DEEERRRRVTDVPIRRRRCSRLF [F10T],4.33
7,DEEERRRRVFDVPWRRRRCSRLF [I14W],2.7
8,DEEERRRRVFDVPKRRRRCSRLF [I14K],3.78
9,DEEERRRRVFDVPCRRRRCSRLF [I14C],2.38
10,DEEERRRRVFDVPERRRRCSRLF [I14E],2.46
11,DEEERRRRVFDVPLRRRRCSRLF [I14L],2.56
12,DEEERRRRVFDVPTRRRRCSRLF [I14T],3.66
13,DEEERRRRVFDVPNRRRRCSRLF [I14N],2.25
14,DEEERRRRVFDVPARRRRCSRLF [I14A],2.64
15,DEEERRRRVFDVPPRRRRCSRLF [I14P],3.4
16,DEEERRRRVFDVPVRRRRCSRLF [I14V],3.27
17,DEEERRRRVFDVPYRRRRCSRLF [I14Y],2.4
18,DEEERRRRVFDVPFRRRRCSRLF [I14F],2.2
19,DEEERRRRVFDVPGRRRRCSRLF [I14G],3.04
20,DEEERRRRVFDVPHRRRRCSRLF [I14H],2.48
21,DEEERRRRVFDVPDRRRRCSRLF [I14D],2.14
22,DEEERRRRVFDVPSRRRRCSRLF [I14S],2.49
23,DEEERRRRVFDVPQRRRRCSRLF [I14Q],2.53
24,DEEERRRRVFDVPMRRRRCSRLF [I14M],2.63
25,DEEERRRRVFDVPRRRRRCSRLF [I14R],3.33

row,Variant,protein stability index
1,DEEERRRRVFWVPIRRRRCSRLF [D11W],1.76
2,DEEERRRRVFEVPIRRRRCSRLF [D11E],2.68
3,DEEERRRRVFMVPIRRRRCSRLF [D11M],2.08
4,DEEERRRRVFVVPIRRRRCSRLF [D11V],1.99
5,DEEERRRRVFLVPIRRRRCSRLF [D11L],2.33
6,DEEERRRRVFGVPIRRRRCSRLF [D11G],2.65
7,DEEERRRRVFIVPIRRRRCSRLF [D11I],2.93
8,DEEERRRRVFYVPIRRRRCSRLF [D11Y],1.67
9,DEEERRRRVFRVPIRRRRCSRLF [D11R],2.25
10,DEEERRRRVFKVPIRRRRCSRLF [D11K],2.51
11,DEEERRRRVFAVPIRRRRCSRLF [D11A],2.73
12,DEEERRRRVFHVPIRRRRCSRLF [D11H],2.19
13,DEEERRRRVFPVPIRRRRCSRLF [D11P],3.34
14,DEEERRRRVFSVPIRRRRCSRLF [D11S],2.75
15,DEEERRRRVFFVPIRRRRCSRLF [D11F],1.89
16,DEEERRRRVFNVPIRRRRCSRLF [D11N],3.06
17,DEEERRRRVFQVPIRRRRCSRLF [D11Q],2.4
18,DEEERRRRVFCVPIRRRRCSRLF [D11C],1.53
19,DEEERRRRVFTVPIRRRRCSRLF [D11T],2.84
20,DEEERRRRWFDVPIRRRRCSRLF [V9W],2.94
21,DEEERRRRTFDVPIRRRRCSRLF [V9T],3.65
22,DEEERRRRYFDVPIRRRRCSRLF [V9Y],2.64
